In general, Km refers to the concentration of substrate that gives half-maximal velocity.

This passage reports Km results from paper PMC4987650, “Structural Investigation of Park’s Nucleotide on Bacterial Translocase MraY: Discovery of Unexpected MraY Inhibitors” (Scientific Reports, 2016).

For this series, the system named is CC(=O)N[C@H]1[C@@H](OP(=O)(O)OP(=O)(O)OC[C@H]2O[C@@H](n3ccc(=O)[nH]c3=O)[C@H](O)[C@@H]2O)O[C@H](CO)[C@@H](O)[C@@H]1O[C@H](C)C(=O)N[C@@H](C)C(=O)N[C@H](CCC(=O)N[C@@H](CCCCNC(=O)CCCCCNc1ccc([N+](=O)[O-])c2nonc12)C(=O)N[C@H](C)C(=O)N[C@H](C)C(=O)O)C(=O)O. Kind of series: Fluorescent enhancement assay, mutant MraY. Format: biochemical, Bacillus subtilis. The settings on record: pH 8.0; 37.0 °C. The method, then: Site–directed mutagenesis of MraY. Site-directed mutagenesis of the B. subtilis MBP-tagged MraY enzyme was performed directly on the pMAL -BS-MraY-16 expression plasmid by using the “Quickchanged XL Site-Directed Mutagenesis Kit ’’ from stratagene and the oligonucleotides shown below. Mutations introduced in the mraY gene sequence were checked by DNA sequencing. […]
MraY-T51A-R 5’-[…]-3’
T53A MraY-T53A-F 5’-[…]-3’
MraY-T53A-R 5’-[…]-3’
K102A MraY-K102A-F 5’-[…]-3’
MraY-K102A-R 5’-[…]-3’
K226A Mray-K226A-F 5’-[…]-3’ […]
F228A MraY-F228A-F 5’-[…]-3’
MraY-F228A-R 5’-[…]-3’
Q271A Mray-Q271A-F 5’-[…]-3’
Mray-Q271A-R 5’-[…]-3’
R281A MraY-R281A-F 5’-[…]-3’
MraY-R281A-R 5’-[…]-3’
W297A MraY-W297A-F 5’-[…]-3’
MraY-W297A-R 5’-[…]-3’
Determine kinetic parameters by MraY fluorescence enhancement assay. The fluorescence enhancement assay was performed in 384-well plate as described by Bugg et al. with slight modifications.5 The reaction mixture containing MraYBS (10 μg/mL), C55P (200 μM) in 30 μL reaction buffer (30 mM Tris, 10 mM MgCl2, 10 mM NaCl, 0.1 mM Tween-20, 2.5% DMSO, pH 8.0) were pre-incubated at 37 °C for 15 min. The reactions were initiated by the addition of various concentrations of NBD-Park’s nucleotide 6 (0 to 160 μM). For inhibition study, a various concentrations of inhibitors were added before the addition of substrate 6. The continuous fluorescence increase over 60 min was monitored with λex 466 nm/λem 535 nm by fluorescence microplate reader (SpectraMax M5, Molecular Devices, LLC) at 37 °C. Linear regressions of increased fluorescent units (FLU) versus time (min) were used to calculate the initial velocities for each reaction. The kinetic parameters values (Ki, KM, and Vmax) were obtained by nonlinear regression analysis using the […] equation with the GraphPad Prism program (GraphPad Software, San
(1 picture or pasted object on this page, not shown here)
With “MraYBS F228A mutant (Bacillus subtilis subsp. subtilis str. 168; F228A)”, the Km was 18 ± 2 µM. Then “MraYBS K102A mutant (Bacillus subtilis subsp. subtilis str. 168; K102A)”, with 49 ± 9 µM; and “MraYBS K226A mutant (Bacillus subtilis subsp. subtilis str. 168; K226A)”, with 24 ± 3 µM; and “MraYBS Q271A mutant (Bacillus subtilis subsp. subtilis str. 168; Q271A)”, with 72 ± 11 µM.

For “MraYBS R281A mutant (Bacillus subtilis subsp. subtilis str. 168; R281A)”, the Km turned out to be 20 ± 1 µM.

In the case of “MraYBS T51A mutant (Bacillus subtilis subsp. subtilis str. 168; T51A)”, the Km was found to be 24 ± 2 µM. For the substance “MraYBS T53A mutant (Bacillus subtilis subsp. subtilis str. 168; T53A)”, the Km was determined as 70 ± 11 µM. Then “MraYBS W297A mutant (Bacillus subtilis subsp. subtilis str. 168; W297A)”, with 63 ± 9 µM.
